Assay results taken from patent US20230416378A1 (Boehringer Ingelheim, published 2023).
Where a chain is given by its changes, count along the chain named. One block for each binder: values may come before it.

What was measured:
[1] = molecular target: T1, Neuropilin-1 (Nrp1) endogenously expressed on human endothelial cells (HRMEC, HUVEC) (human, UniProt O14786 22-923); experiment: cell-based or functional assay
[2] = molecular target: T1, Neuropilin-1 (Nrp1) endogenously …; experiment: cell-based or functional assay; remark: listed apart in the source
[3] = molecular target: T2, human Nrp1 (soluble analyte in SPR and BLI) (human, UniProt O14786 22-856, limits assumed); experiment: SPR, antibody captured on Protein A/G (GLM sensorchip), human Nrp1A as analyte 0-100 nM, 1:1 Langmuir fit
T2 construct: also called hNrp1; Human Nrp1A
Protocol: (§1) The running buffer for this experiment and all dilutions (except where stated) were done in PBS-T-EDTA with 0.01% Tween20 [100 ul of 100% Tween20 was added to 2L of PBS-T-EDTA to make final Tween 20 concentration of 0.01%]. The GLM sensorchip was normalized and pre-conditioned as per the manufacturer's recommendations. The sensorchip was activated with equal mixture of EDC/s-NHS in the horizontal direction for 300 sec at a flow rate of 30 μl/min and immobilized with Recombinant Protein NG (60 μg/ml in 10 mM acetate pH 4.5) in the horizontal direction for 300 sec at a flowrate of 30 μl/min. The sensorchip was deactivated with 1M ethanolamine HCl in the horizontal direction for 300 sec at a flowrate of 30 μl/min. The sensorchip was stabilized with 18 sec of 0.85% phosphoric acid at a flowrate of 100 μl/min 3 times horizontally and 3 times vertically.
Human Nrp1A was prepared in PBS-T-EDTA buffer at concentrations of 100, 50, 25, 12.5, 6.25, and 0 nM. A PBS-T-EDTA buffer injection was used as a double reference for the kinetic data analysis. Each of the human Nrp1A solutions and PBS-T-EDTA buffer were injected simultaneously over the 6 horizontal channels for 5 min at a flow rate of 40 μL/min followed by 30 min dissociation phase. The surfaces were regenerated by an 18 sec injection of 0.85% Phosphoric acid at a flow rate of 100 μL/min followed by an injection of sec PBS-T-EDTA at a flow rate of 100 μL/min. The interspot (interactions with sensor surface) and blank (PBS-T-EDTA with 0.01% Tween20 or 0 nM analyte) were subtracted from the raw data.

[4] = molecular target: T2, human Nrp1 (soluble analyte in SPR and …); experiment: SPR, antibody captured on Protein A/G (GLM sensorchip), Nrp1 as analyte 0-100 nM, 1:1 Langmuir fit
Protocol: as §1, with “The sensorchip was activated with equal mixture of EDC/s-NHS in the horizontal direction for 300 sec at a flow rate of 30 μl/min and immobilized with Recombinant Protein NG (60 μg/ml in 10 mM acetate pH 4.5) in the horizontal direction for 300 sec at a flowrate of 30 μl/min.” left out
(§2) The baseline was stabilized by injecting PBS-T-EDTA for 60 sec at a flowrate of 100 μl/min horizontally with dissociation of 120 sec. The analyte was injected horizontally over the captured antibody for 300 sec at a flowrate of 30 μl/min and a dissociation for 1800 sec. The concentrations of the analytes were 0 nM, 6.25 nM, 12.5 nM, 25 nM, 50 nM, and 100 nM. The surface was regenerated by injecting 0.85% phosphoric acid for 18 sec at a flowrate of 100 μl/min one time horizontally and one time vertically. PBS-T-EDTA was injected for 60 sec at a flowrate of 100 μl/min one time vertically and one time horizontally.
(§3) The interspot (interactions with sensor surface) and blank (PBS-T-EDTA with 0.01% Tween20 or 0 nM analyte) were subtracted from the raw data.

[5] = molecular target: T3, cyno Nrp1 (cyno, UniProt A0A2K5V5E7 24-858); experiment: as above
T3 construct: also called cyno-Nrp1A
Protocol: as §1, with “The sensorchip was activated with equal mixture of EDC/s-NHS in the horizontal direction for 300 sec at a flow rate of 30 μl/min and immobilized with Recombinant Protein NG (60 μg/ml in 10 mM acetate pH 4.5) in the horizontal direction for 300 sec at a flowrate of 30 μl/min.” left out
as §2, §3

[6] = molecular target: T4, rat Nrp1 (rat, UniProt Q9QWJ9 22-855, limits assumed); experiment: as above
T4 construct: also called rat Nrp1A
Protocol: as §1, with “The sensorchip was activated with equal mixture of EDC/s-NHS in the horizontal direction for 300 sec at a flow rate of 30 μl/min and immobilized with Recombinant Protein NG (60 μg/ml in 10 mM acetate pH 4.5) in the horizontal direction for 300 sec at a flowrate of 30 μl/min.” left out
as §2, §3

[7] = molecular target: T5, mouse Nrp1 (mouse, UniProt P97333 22-856, limits assumed); experiment: as above
T5 construct: also called mouse Nrp1A
Protocol: as §1, with “The sensorchip was activated with equal mixture of EDC/s-NHS in the horizontal direction for 300 sec at a flow rate of 30 μl/min and immobilized with Recombinant Protein NG (60 μg/ml in 10 mM acetate pH 4.5) in the horizontal direction for 300 sec at a flowrate of 30 μl/min.” left out
as §2, §3

[8] = molecular target: T6, gerbil Nrp1 (gerbil); experiment: as above
T6 construct: also called gerbil Nrp1A
Protocol: as §1, with “The sensorchip was activated with equal mixture of EDC/s-NHS in the horizontal direction for 300 sec at a flow rate of 30 μl/min and immobilized with Recombinant Protein NG (60 μg/ml in 10 mM acetate pH 4.5) in the horizontal direction for 300 sec at a flowrate of 30 μl/min.” left out
as §2, §3

T2 sequence (O14786 22-856 V179A limits assumed): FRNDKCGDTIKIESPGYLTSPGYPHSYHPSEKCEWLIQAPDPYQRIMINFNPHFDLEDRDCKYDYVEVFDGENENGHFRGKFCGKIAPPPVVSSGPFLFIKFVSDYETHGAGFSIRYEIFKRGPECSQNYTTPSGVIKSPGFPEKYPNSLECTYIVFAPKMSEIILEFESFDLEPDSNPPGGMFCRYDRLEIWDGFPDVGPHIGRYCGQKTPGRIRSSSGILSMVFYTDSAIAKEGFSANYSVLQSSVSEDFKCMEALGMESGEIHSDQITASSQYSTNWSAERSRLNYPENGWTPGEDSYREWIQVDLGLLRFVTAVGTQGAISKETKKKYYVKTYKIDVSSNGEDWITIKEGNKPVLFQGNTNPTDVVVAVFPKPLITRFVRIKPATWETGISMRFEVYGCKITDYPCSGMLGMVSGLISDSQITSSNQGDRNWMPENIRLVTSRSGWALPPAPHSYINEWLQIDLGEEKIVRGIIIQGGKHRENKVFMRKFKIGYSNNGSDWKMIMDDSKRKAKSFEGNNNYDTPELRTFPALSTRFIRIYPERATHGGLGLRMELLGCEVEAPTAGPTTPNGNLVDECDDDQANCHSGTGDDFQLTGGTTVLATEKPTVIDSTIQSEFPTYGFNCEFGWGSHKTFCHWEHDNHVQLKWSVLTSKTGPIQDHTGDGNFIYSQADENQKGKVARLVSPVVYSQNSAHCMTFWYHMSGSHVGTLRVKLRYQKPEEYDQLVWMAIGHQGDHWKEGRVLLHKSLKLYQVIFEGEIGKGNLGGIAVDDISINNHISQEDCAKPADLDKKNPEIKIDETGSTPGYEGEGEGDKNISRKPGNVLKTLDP
T1 sequence (O14786 22-923 V179A limits assumed): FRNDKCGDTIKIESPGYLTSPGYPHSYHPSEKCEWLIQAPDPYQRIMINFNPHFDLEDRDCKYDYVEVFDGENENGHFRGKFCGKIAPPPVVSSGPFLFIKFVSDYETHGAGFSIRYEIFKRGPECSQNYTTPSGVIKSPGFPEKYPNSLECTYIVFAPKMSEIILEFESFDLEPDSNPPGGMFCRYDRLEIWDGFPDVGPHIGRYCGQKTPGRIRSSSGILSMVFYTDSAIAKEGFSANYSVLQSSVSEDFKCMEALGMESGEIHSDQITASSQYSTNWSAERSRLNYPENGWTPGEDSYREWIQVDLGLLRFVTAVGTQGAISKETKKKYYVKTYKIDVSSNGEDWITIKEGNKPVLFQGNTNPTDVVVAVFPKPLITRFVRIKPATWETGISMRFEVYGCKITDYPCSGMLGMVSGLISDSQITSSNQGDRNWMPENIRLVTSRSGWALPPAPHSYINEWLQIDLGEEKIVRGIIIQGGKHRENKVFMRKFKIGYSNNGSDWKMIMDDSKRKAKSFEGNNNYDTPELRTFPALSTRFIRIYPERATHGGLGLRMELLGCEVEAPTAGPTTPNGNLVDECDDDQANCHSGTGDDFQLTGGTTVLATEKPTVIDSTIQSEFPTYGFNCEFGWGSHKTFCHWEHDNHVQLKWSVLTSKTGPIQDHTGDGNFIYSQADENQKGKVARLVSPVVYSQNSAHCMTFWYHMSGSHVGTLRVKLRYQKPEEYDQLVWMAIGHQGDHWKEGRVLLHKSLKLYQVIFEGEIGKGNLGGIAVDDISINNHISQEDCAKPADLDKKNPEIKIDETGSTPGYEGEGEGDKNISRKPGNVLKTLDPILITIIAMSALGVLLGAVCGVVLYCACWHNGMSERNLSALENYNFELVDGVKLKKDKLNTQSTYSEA
T5 sequence (P97333 22-856 limits assumed): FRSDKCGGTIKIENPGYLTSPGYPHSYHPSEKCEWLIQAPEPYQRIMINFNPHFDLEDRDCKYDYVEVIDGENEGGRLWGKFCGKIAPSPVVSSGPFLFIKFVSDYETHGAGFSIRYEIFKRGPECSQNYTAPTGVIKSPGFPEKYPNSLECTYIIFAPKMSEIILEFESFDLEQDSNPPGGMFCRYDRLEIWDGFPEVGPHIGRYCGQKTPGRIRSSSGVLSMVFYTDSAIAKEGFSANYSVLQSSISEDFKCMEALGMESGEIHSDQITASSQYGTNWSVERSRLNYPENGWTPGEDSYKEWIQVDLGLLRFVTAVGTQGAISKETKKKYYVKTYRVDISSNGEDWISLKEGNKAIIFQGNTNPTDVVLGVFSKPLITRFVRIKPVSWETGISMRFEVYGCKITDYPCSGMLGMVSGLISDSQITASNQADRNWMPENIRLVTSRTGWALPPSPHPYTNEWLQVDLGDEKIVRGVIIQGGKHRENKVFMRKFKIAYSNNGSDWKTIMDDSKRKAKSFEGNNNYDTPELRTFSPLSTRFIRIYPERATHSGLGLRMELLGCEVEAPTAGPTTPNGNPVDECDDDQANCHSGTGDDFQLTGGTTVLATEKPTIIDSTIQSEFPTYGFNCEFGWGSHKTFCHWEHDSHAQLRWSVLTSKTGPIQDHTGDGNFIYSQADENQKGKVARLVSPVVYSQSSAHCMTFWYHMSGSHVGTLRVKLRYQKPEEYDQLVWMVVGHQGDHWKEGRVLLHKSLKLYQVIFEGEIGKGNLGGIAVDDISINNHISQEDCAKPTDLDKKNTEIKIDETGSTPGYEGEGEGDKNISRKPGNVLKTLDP
T3 sequence (A0A2K5V5E7 entry or part of it): as the sequence (O14786 22-856 V179A limits assumed) above, with H77R, F78L, R79W, P96Q, L258V, V341I, M396L, I460V, L578P counted along it
T4 sequence (Q9QWJ9 22-855 limits assumed): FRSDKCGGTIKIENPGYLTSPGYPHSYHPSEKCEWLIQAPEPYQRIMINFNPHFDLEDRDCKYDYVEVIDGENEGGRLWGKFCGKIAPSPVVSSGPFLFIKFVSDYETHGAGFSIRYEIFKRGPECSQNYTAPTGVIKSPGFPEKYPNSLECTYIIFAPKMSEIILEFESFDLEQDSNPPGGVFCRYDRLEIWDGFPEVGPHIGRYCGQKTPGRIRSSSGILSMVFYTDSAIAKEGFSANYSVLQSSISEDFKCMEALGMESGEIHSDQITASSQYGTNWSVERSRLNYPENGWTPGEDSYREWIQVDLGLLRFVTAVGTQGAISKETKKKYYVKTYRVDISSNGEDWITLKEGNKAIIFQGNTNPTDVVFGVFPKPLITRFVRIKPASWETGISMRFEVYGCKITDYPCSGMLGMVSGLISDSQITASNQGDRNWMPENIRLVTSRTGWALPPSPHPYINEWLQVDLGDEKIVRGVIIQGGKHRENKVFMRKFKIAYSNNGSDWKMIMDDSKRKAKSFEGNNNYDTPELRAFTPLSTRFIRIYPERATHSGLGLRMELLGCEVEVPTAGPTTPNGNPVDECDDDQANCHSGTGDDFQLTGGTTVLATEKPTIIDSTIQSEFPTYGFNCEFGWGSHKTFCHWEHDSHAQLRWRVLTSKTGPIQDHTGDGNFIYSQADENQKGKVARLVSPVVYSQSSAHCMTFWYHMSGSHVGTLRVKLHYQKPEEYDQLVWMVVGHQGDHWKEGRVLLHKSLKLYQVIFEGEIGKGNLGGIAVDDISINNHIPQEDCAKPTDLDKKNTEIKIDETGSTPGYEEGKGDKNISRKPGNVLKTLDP

Collapse assay IC50 [1]: 0.056 nM | VEGF induced cell integrity loss IC50 [2]: 12.6 nM | Kd [3]: 11.3 nM
B1: YW64.3, comparative antibody directed against Nrp1A (antibody, human IgG1, kappa, L234A L235A, V domains shown)
VH: EVQLVESGGGLVQPGGSLRLSCAASGFSFSSEPISWVRQAPGKGLEWVSSITGKNGYTYYADSVKGRFTISADTSKNTAYLQMNSLRAEDTAVYYCARWGKKVYGMDVWGQGTLVTVSS
VL: DIQMTQSPSSLSASVGDRVTITCRASQSISSYLAWYQQKPGKAPKLLIYGASSRASGVPSRFSGSGSGTDFTLTISSLQPEDFATYYCQQYMSVPITFGQGTKVEIKR
notes: Made for comparison after WO2007056470; also called anti-Nrp1A (YW64.3); Clone YW64.3

VEGF induced cell integrity loss IC50 [2]: 13.7 nM | Kd [3]: 37.5 nM
B2: YW107.4.87, comparative antibody directed against Nrp1B (antibody, human IgG1, kappa, V domains shown)
VH: EVQLVESGGGLVQPGGSLRLSCAASGFTFSSYAMSWVRQAPGKGLEWVSQISPAGGYTNYADSVKGRFTISADTSKNTAYLQMNSLRAEDTAVYYCARGELPYYRMSKVMDVWGQGTLVTVSS
VL: B1 VL with S28Y, I29F, M92L, S93G, V94S, I96P
notes: Made for comparison after WO2007056470; also called anti-Nrp1B (YW107.4.87)

Collapse assay IC50 [1]: 0.098 nM | VEGF induced cell integrity loss IC50 [2]: 0.74 nM | Kd [4]: 11.1 nM | Kd [5]: 15.2 nM | Kd [6]: 10.5 nM | Kd [7]: 7.7 nM | Kd [8]: 13.9 nM | Kd [3]: 11.1 nM
B3: Antibody of the invention (clone I), humanized anti-Nrp1A antibody (antibody, human IgG1, kappa, L234A L235A, V domains shown)
VH: EVQLLESGGGLVKPGGSLRLSCAASGFTFSSYAMSWVRQAPGKGLEWVSSISRTGYTYYAESVKGRFTISRDESKQTLYLQMQSLKTEDTAVYYCARVGTAFDYWGQGTLVTVSS
VL: not shown
notes: also called exemplary antibody of the invention; lead compound
